Assay results reported in US9163227B2, “Anti-diabetic compounds” (PFIZER INC., priority 2011, dated 2015).

Legend:
[1] = Stability of linkers L1-L4 conjugated to FGF21 (LC-MS); type: physicochemical; conditions: linker conjugated to FGF21ΔH-A129C
Method: The following experiment was performed to investigate the chemical stability over 2 weeks of the four linkers upon conjugation to FGF21: each linker was conjugated to FGF21, placed at +4° C. storage conditions, and aliquots were removed and quenched by freezing at specific time points, and linker stability was monitored by LCMS analysis.
The four linkers were dissolved in DMSO from lyophilized stock material. […] L1 was reacted with protein for 30 mins; L2, L3 and L4 were reacted for 2 hrs. The conjugation reaction was quenched by removal of excess linkers through size-exclusion resin. Conjugated FGF21ΔH-A129C protein was placed at +4° C. for stability storage. […] Analysis of linker stability was performed by LC-MS analysis to determine the relative amount of unconjugated protein, protein+linker conjugation, and single and double hydrolysis events of the conjugated protein+linker.
Linker hydrolysis is the critical analytical variable in this experiment. Hydrolysis was monitored by observing the subsequent addition of H2O to the FGF21-linker complex. A single addition of H2O, +(1) H2O, likely indicates the hydrolysis of the active AZD group that is present on all 4 linkers. The addition of a second H2O molecule, +(2) H2O, is a strong indicator of hydrolysis (eg—chemical instability) in the linker. L1 is particularly susceptible because of the presence of a maleimide functional group.

[2] = Hydrolysis of the reactive group of [SEQ ID NO:10-L1] over time; type: physicochemical; conditions: 4° C., FGF21 RP chromatography
Method: Fine Tune of Conjugation Conditions for FGF21-Linker: The laboratory scale-ups were performed at different scales with a variety of optimized buffers and pHs. […] Since hydrolysis of reactive group of SEQ ID NO:10-L1 occurs over time (Table 27), post activation diafiltration of SEQ ID NO:10-L1 should be operated at between about 2 and about 10° C. The amount of SEQ ID NO:10-L1 after post activation diafiltration varied in different experiments, and the difference could contribute to the variation of the conjugation efficiency for h38C2-[SEQ ID NO:10-L1]1. About 100 mM Phosphate pH about 6.3 gave the least aggregates and highest h38C2 remaining for recycle purpose.
The above sample was further passed through the UFDF to remove excess linker and TCEP. The membrane was sanitized with 1N NaOH for 30 min, drained, and equilibrated with 100 mM MES, pH 7.0. Buffer 100 mM MES, pH 7.0 was used for diafilteration (7× diafilteration). Diafiltration was done at 4 g/L retentate concentration. Foaming and splashing may be avoided during UF/DF. Hydrolysis of the reactive group of [SEQ ID NO:10-L1] occurred over the diafiltration process. The hold time for post-activation DF pool should be minimized. UF may be operated at 2-10° C. using 10K Sartorius Hydrosart membrane. The combined species [SEQ ID NO:10-L1] confirmed by FGF21 RP was down from 73% to 64% after UF/DF.

[3] = +4° C. storage, LC-MS, of total measured protein, 0 hrs

CC1=CC(=O)N(CC2CCC(C(=O)NCCOCCOCCC(=O)Nc3ccc(CCC(=O)N4CCC4=O)cc3)CC2)C1=O (centres unmarked) [Compound L4]
0 linker (unconjugated protein) [1, 3]: 20% | 1 linker (protein+linker conjugation) ([1]; +4° C., 0 hrs): 46% | +(1) H2O (single hydrolysis) ([1]; +4° C., 0 hrs): 28% | +(2) H2O (double hydrolysis) ([1]; +4° C., 0 hrs): 6% | 0 linker (unconjugated protein) ([1]; +4° C., 24 hrs): 20% | 1 linker (protein+linker conjugation) ([1]; +4° C., 24 hrs): 46% | +(1) H2O (single hydrolysis) ([1]; +4° C., 24 hrs): 27% | +(2) H2O (double hydrolysis) ([1]; +4° C., 24 hrs): 7% | 0 linker (unconjugated protein) ([1]; +4° C., 72 hrs): 21% | 1 linker (protein+linker conjugation) ([1]; +4° C., 72 hrs): 42% | +(1) H2O (single hydrolysis) ([1]; +4° C., 72 hrs): 30% | +(2) H2O (double hydrolysis) ([1]; +4° C., 72 hrs): 7% | 0 linker (unconjugated protein) ([1]; +4° C., 168 hrs): 21% | 1 linker (protein+linker conjugation) ([1]; +4° C., 168 hrs): 41% | +(1) H2O (single hydrolysis) ([1]; +4° C., 168 hrs): 32% | +(2) H2O (double hydrolysis) ([1]; +4° C., 168 hrs): 6% | 0 linker (unconjugated protein) ([1]; +4° C., 336 hrs): 22% | 1 linker (protein+linker conjugation) ([1]; +4° C., 336 hrs): 41% | +(1) H2O (single hydrolysis) ([1]; +4° C., 336 hrs): 31% | +(2) H2O (double hydrolysis) ([1]; +4° C., 336 hrs (2 weeks)): 6%

CC1=CC(=O)N(CCOCCOCCC(=O)Nc2ccc(CCC(=O)N3CCC3=O)cc2)C1=O [Compound L3]
0 linker (unconjugated protein) [1, 3]: 19% | 1 linker (protein+linker conjugation) ([1]; +4° C., 0 hrs): 45% | +(1) H2O (single hydrolysis) ([1]; +4° C., 0 hrs): 30% | +(2) H2O (double hydrolysis) ([1]; +4° C., 0 hrs): 6% | 0 linker (unconjugated protein) ([1]; +4° C., 24 hrs): 18% | 1 linker (protein+linker conjugation) ([1]; +4° C., 24 hrs): 47% | +(1) H2O (single hydrolysis) ([1]; +4° C., 24 hrs): 27% | +(2) H2O (double hydrolysis) ([1]; +4° C., 24 hrs): 8% | 0 linker (unconjugated protein) ([1]; +4° C., 72 hrs): 19% | 1 linker (protein+linker conjugation) ([1]; +4° C., 72 hrs): 43% | +(1) H2O (single hydrolysis) ([1]; +4° C., 72 hrs): 30% | +(2) H2O (double hydrolysis) ([1]; +4° C., 72 hrs): 8% | 0 linker (unconjugated protein) ([1]; +4° C., 168 hrs): 19% | 1 linker (protein+linker conjugation) ([1]; +4° C., 168 hrs): 43% | +(1) H2O (single hydrolysis) ([1]; +4° C., 168 hrs): 29% | +(2) H2O (double hydrolysis) ([1]; +4° C., 168 hrs): 8% | 0 linker (unconjugated protein) ([1]; +4° C., 336 hrs): 20% | 1 linker (protein+linker conjugation) ([1]; +4° C., 336 hrs): 43% | +(1) H2O (single hydrolysis) ([1]; +4° C., 336 hrs): 29% | +(2) H2O (double hydrolysis) ([1]; +4° C., 336 hrs (2 weeks)): 8%

CC1=CC(=O)N(CCC(=O)NCCOCCOCCC(=O)Nc2ccc(CCC(=O)N3CCC3=O)cc2)C1=O [Compound L2]
0 linker (unconjugated protein) [1, 3]: 22% | 1 linker (protein+linker conjugation) ([1]; +4° C., 0 hrs): 45% | +(1) H2O (single hydrolysis) ([1]; +4° C., 0 hrs): 27% | +(2) H2O (double hydrolysis) ([1]; +4° C., 0 hrs): 6% | 0 linker (unconjugated protein) ([1]; +4° C., 24 hrs): 23% | 1 linker (protein+linker conjugation) ([1]; +4° C., 24 hrs): 43% | +(1) H2O (single hydrolysis) ([1]; +4° C., 24 hrs): 26% | +(2) H2O (double hydrolysis) ([1]; +4° C., 24 hrs): 8% | 0 linker (unconjugated protein) ([1]; +4° C., 72 hrs): 24% | 1 linker (protein+linker conjugation) ([1]; +4° C., 72 hrs): 37% | +(1) H2O (single hydrolysis) ([1]; +4° C., 72 hrs): 32% | +(2) H2O (double hydrolysis) ([1]; +4° C., 72 hrs): 8% | 0 linker (unconjugated protein) ([1]; +4° C., 168 hrs): 24% | 1 linker (protein+linker conjugation) ([1]; +4° C., 168 hrs): 40% | +(1) H2O (single hydrolysis) ([1]; +4° C., 168 hrs): 29% | +(2) H2O (double hydrolysis) ([1]; +4° C., 168 hrs): 7% | 0 linker (unconjugated protein) ([1]; +4° C., 336 hrs): 26% | 1 linker (protein+linker conjugation) ([1]; +4° C., 336 hrs): 38% | +(1) H2O (single hydrolysis) ([1]; +4° C., 336 hrs): 28% | +(2) H2O (double hydrolysis) ([1]; +4° C., 336 hrs (2 weeks)): 8%

O=C(CCN1C(=O)C=CC1=O)NCCOCCOCCC(=O)Nc1ccc(CCC(=O)N2CCC2=O)cc1 [Compound L1, 3-(2,5-dioxo-2,5-dihydro-1H-pyrrol-1-yl)-N-(2-(2-(3-oxo-3-(4-(3-oxo-3-(2-oxoazetidin-1-yl)propyl)phenylamino)propoxy)ethoxy)ethyl)propanamide]
0 linker (unconjugated protein) [1, 3]: 13% | 1 linker (protein+linker conjugation) ([1]; +4° C., 0 hrs): 49% | +(1) H2O (single hydrolysis) ([1]; +4° C., 0 hrs): 30% | +(2) H2O (double hydrolysis) ([1]; +4° C., 0 hrs): 8% | 0 linker (unconjugated protein) ([1]; +4° C., 24 hrs): 14% | 1 linker (protein+linker conjugation) ([1]; +4° C., 24 hrs): 41% | +(1) H2O (single hydrolysis) ([1]; +4° C., 24 hrs): 34% | +(2) H2O (double hydrolysis) ([1]; +4° C., 24 hrs): 11% | 0 linker (unconjugated protein) ([1]; +4° C., 72 hrs): 14% | 1 linker (protein+linker conjugation) ([1]; +4° C., 72 hrs): 40% | +(1) H2O (single hydrolysis) ([1]; +4° C., 72 hrs): 35% | +(2) H2O (double hydrolysis) ([1]; +4° C., 72 hrs): 11% | 0 linker (unconjugated protein) ([1]; +4° C., 168 hrs): 10% | 1 linker (protein+linker conjugation) ([1]; +4° C., 168 hrs): 33% | +(1) H2O (single hydrolysis) ([1]; +4° C., 168 hrs): 40% | +(2) H2O (double hydrolysis) ([1]; +4° C., 168 hrs): 18% | 0 linker (unconjugated protein) ([1]; +4° C., 336 hrs): 12% | 1 linker (protein+linker conjugation) ([1]; +4° C., 336 hrs): 28% | +(1) H2O (single hydrolysis) ([1]; +4° C., 336 hrs): 41% | +(2) H2O (double hydrolysis) ([1]; +4° C., 336 hrs (2 weeks)): 18%

B1: [SEQ ID NO: 10-L1] (protein, listed as Homo sapiens)
chain: PIPDSSPLLQFGGQVRQRYLYTDDAQQTEAHLEIREDGTVGGAADQSPESLLQLKALKPGVIQILGVKTSRFLCQRPDGALYGSLHFDPEACSFRELLLEDGYNVYQSEAHGLPLHLPGNKSPHRDPCPRGPARFLPLPGLPPALPEPPGILAPQPPDVGSSDPLSMVGPSQGRSPSYAS
modifications: L1 linker attached
% FGF21 ([2]; 0 hour): 13.4% | % FGF21 dimer ([2]; 0 hour): 1.8% | % Hydrolyzed reactive FGF21ΔH-A129C-L1 ([2]; 0 hour): 6.5% | % Other ([2]; 0 hour): 1.6% | % reactive FGF21ΔH-A129C-L1 ([2]; 0 hour): 76.7% | % FGF21 ([2]; 1 hour): 13.2% | % FGF21 dimer ([2]; 1 hour): 2.8% | % Hydrolyzed reactive FGF21ΔH-A129C-L1 ([2]; 1 hour): 8.8% | % Other ([2]; 1 hour): 1.6% | % reactive FGF21ΔH-A129C-L1 ([2]; 1 hour): 73.6% | % FGF21 ([2]; 2 hrs): 14.4% | % FGF21 dimer ([2]; 2 hrs): 4.0% | % Hydrolyzed reactive FGF21ΔH-A129C-L1 ([2]; 2 hrs): 10.6% | % Other ([2]; 2 hrs): 1.9% | % reactive FGF21ΔH-A129C-L1 ([2]; 2 hrs): 69.1% | % FGF21 ([2]; 3 hrs): 13.3% | % FGF21 dimer ([2]; 3 hrs): 4.1% | % Hydrolyzed reactive FGF21ΔH-A129C-L1 ([2]; 3 hrs): 13.6% | % Other ([2]; 3 hrs): 1.9% | % reactive FGF21ΔH-A129C-L1 ([2]; 3 hrs): 67.1% | % FGF21 ([2]; 4 hrs): 13.9% | % FGF21 dimer ([2]; 4 hrs): 4.5% | % Hydrolyzed reactive FGF21ΔH-A129C-L1 ([2]; 4 hrs): 14.9% | % Other ([2]; 4 hrs): 1.8% | % reactive FGF21ΔH-A129C-L1 ([2]; 4 hrs): 64.9% | % FGF21 ([2]; 5 hrs): 14.3% | % FGF21 dimer ([2]; 5 hrs): 5.0% | % Hydrolyzed reactive FGF21ΔH-A129C-L1 ([2]; 5 hrs): 16.9% | % Other ([2]; 5 hrs): 1.9% | % reactive FGF21ΔH-A129C-L1 ([2]; 5 hrs): 61.9% | % FGF21 ([2]; 6 hrs): 13.9% | % FGF21 dimer ([2]; 6 hrs): 5.2% | % Hydrolyzed reactive FGF21ΔH-A129C-L1 ([2]; 6 hrs): 18.8% | % Other ([2]; 6 hrs): 1.8% | % reactive FGF21ΔH-A129C-L1 ([2]; 6 hrs): 60.3% | % FGF21 ([2]; 8 hrs): 14.5% | % FGF21 dimer ([2]; 8 hrs): 5.7% | % Hydrolyzed reactive FGF21ΔH-A129C-L1 ([2]; 8 hrs): 22.3% | % Other ([2]; 8 hrs): 1.7% | % reactive FGF21ΔH-A129C-L1 ([2]; 8 hrs): 55.8% | % FGF21 ([2]; 10 hrs): 15.0% | % FGF21 dimer ([2]; 10 hrs): 5.9% | % Hydrolyzed reactive FGF21ΔH-A129C-L1 ([2]; 10 hrs): 25.0% | % Other ([2]; 10 hrs): 1.8% | % reactive FGF21ΔH-A129C-L1 ([2]; 10 hrs): 52.3%
